The target of experiment [1] is consolidated ligand NH2-PVpYENVG6>(…ONH2). Kind of experiment: fluorescence-based titration assay in solution.
Experiment [2] addresses T1, semisynthetic 600 amino acid-long sigma-70 derivative (ligation product of sigma-70 1-567 with the synthetic … (E. coli, UniProt P00579 1-567; P00579 568-600).
T1 construct: range 1-567;range 568-600; also called semisynthetic ?^70
Kind of experiment: Ni2+-NTA agarose co-immobilization, SDS-PAGE.
Method: (§1) The indicated proteins were loaded onto Ni²⁺-NTA-agarose beads (L) and the unbound protein was removed (F). The beads were extensively washed and the bound protein was eluted with buffer containing 100 mM imidazole (E).
(§2) A mixture of AsiAHis and recombinant σ⁷⁰ was loaded onto Ni²⁺-NTA agarose beads (lane 4) and the unbound material removed (lane 5). The beads were subsequently washed with 10 mM imidazole buffer and then eluted with 100 mM imidazole buffer.

In experiment [3] the target is T2, cleavage product containing the first 567 amino acids of sigma-70 (E. coli, UniProt P00579 1-567).
T2 construct: range 1-567; also called ?^70 fragment
The experiment can be described thus: Ni2+-NTA agarose co-immobilization, SDS-PAGE.
Method: as §1, §2

Experiment [4] addresses T3, E. coli RNA polymerase sigma-70 subunit, full-length recombinant (sigma is printed as a garbled character: … (E. coli, UniProt P00579 1-613)).
T3 construct: range 1-613; also called full-length ?^70; recombinant ?^70
The experiment can be described thus: Ni2+-NTA agarose co-immobilization, SDS-PAGE.
Method: as §1, §2

Two molecules from patent US20020151006A1 (ROCKEFELLER UNIVERSITY, published 2002) can be followed below.

Usually Kd stands for the concentration at which binding is half-saturated. Lower therefore signals higher affinity.

The molecule “Abl-[G^120C^121][SH2-^15N]SH(32), the ligation product of the Abl-SH3 and Abl-SH2 domains (from UniProt P00519 65-220)” gave a Kd in experiment [1] of 300 nM.

B1: bacteriophage T4 antisigma protein AsiA with a C-terminal hexahistidine tag (other)
chain: MNKNIDTVREIITVASILIKFSREDIVENRANFIAFLNEIGVTHEGRKLNQNSFRKIVSELTQEDKKTLIDEFNEGFEGVYRYLEMYTNKHHHHHH
notes: also called AsiAHis; AsiAHIS
Regarding B1, the binding result in experiment [2] was “binds”; in experiment [3], “no binding”; in experiment [4], “binds”.
